In paper PMC6733935, “A convenient and efficient total solid-phase synthesis of DOTA-functionalized tumor-targeting peptides for PET imaging of cancer” (EJNMMI Research, 2019):
Square brackets hold non-standard residues; d marks the D form. Peptide text beside a SMILES is read from it. * marks the point of attachment. DOTA = O=C(O)CN1CCN(CC(=O)O)CCN(CC(=O)*)CCN(CC(=O)O)CC1; Cha = N[C@@H](CC1CCCCC1)C(=O)O; 4Abz = Nc1ccc(C(=O)O)cc1; Nle = CCCC[C@H](N)C(=O)O

Assays:
[1] = target: T1, BN/GRP receptor-positive MCF7 human breast cancer cells (Homo sapiens, UniProt P30550); assay: Saturation binding assay on MCF7 cells; conditions: n = 3-5 experiments, SD < 15%
T1 construct: BN/GRP receptor-positive MDA-MB-231, MCF7, T47D human breast cancer, and PC3 human prostate cancer lines; host or cells: MDA-MB-231, MCF7, T47D (human breast cancer), PC3 (human prostate cancer); intact cells
Procedure: (§1) The cell binding of ^68Ga-radiolabeled peptides into BN/GRP receptor-positive MDA-MB-231, MCF7, T47D human breast cancer, and PC3 human prostate cancer lines (American Type Culture Collection, Rockville, MD, USA) was performed according to the method described previously. In brief, ∼ 300,000 cells (in 300 μL in low-serum media) were incubated with various amounts of radiopeptides, ranging between 0.1 and 25 nM of peptide (prepared from the serial dilutions of HPLC-purified radiopeptides), in duplicate for 60 min at room temperature. The initial concentrations of ^68Ga-labeled peptides were determined according to a well-established HPLC technique with simultaneous detection by UV absorbance. As the amount of BN peptide in the reaction mixture was too small to be detected by UV absorption at 220 nm, the radioactive peptide chromatograms from the HPLC analysis were compared (with UV chromatograms) with those of known concentrations of the corresponding nonradioactive peptides for the mass determination. Incubation was terminated by dilution with cold saline (300 μL) and the cells were pelleted by centrifugation. The cell pellets was then rapidly washed with cold saline to remove any unbound peptide and centrifuged to collect supernatants. Radioactivity in the cell pellet and the washings was measured in a γ-counter. Non-specific binding was determined in the presence of ~ 200-fold molar excess of unlabeled BN peptide. Specific binding is calculated by subtracting the non-specifically bound radioactivity from that of the total binding. The dissociation constant (Kd) was calculated using a plot of cell bound activity versus the concentration of the radioligand using GraphPad Prism software (GraphPad Software Inc., San Diego, CA, USA).

in vivo = assay: in vivo; set-up: species or system Balb/c mice; conditions: Balb/c, mouse, iv
Procedure: Approval for the animal protocol used in this study was obtained from the Institutional Animal Care and Use Committee. Animal studies were conducted according to the international regulations governing the safe and proper use of laboratory animals. In vivo biodistribution were performed on healthy Balb/c mice (n = 3–5 in each group, body weight 19–22 g) at 1 and 2 h after intravenous injection of the HPLC-purified radiopeptide (100 μL, 15–20 μCi, total peptide dose ~ 20 ng) via the lateral tail vein. The mice were sacrificed by cervical dislocation at specified time points and blood samples were withdrawn with a syringe from the heart. Major organs such as lungs, stomach, spleen, pancreas, intestines, liver, kidneys, etc. were isolated, weighed, and radioactivity in each organs and tissues were measured using a γ-scintillation counter. Uptake of radioactivity in the tissues and organs was expressed as the percent injected dose per gram (% ID/g) of tissue/organ, which was calculated by comparison with standard solutions representing 10% of the injected dose per animal. For the clearance studies, radioactivity in the urine with bladder and feces is expressed as the percent of the injected dose per tissue (% ID). Values are expressed as mean ± SD for a group of 3-5 animals at each time point.

[2] = target: T2, BN/GRP receptor-positive MDA-MB-231 human breast cancer cells (Homo sapiens, UniProt P30550); assay: Saturation binding assay on MDA-MB-231 cells; conditions: n = 3-5 experiments, SD < 15%
T2 construct: BN/GRP receptor-positive MDA-MB-231, MCF7, T47D human breast cancer, and PC3 human prostate cancer lines; host or cells: MDA-MB-231, MCF7, T47D (human breast cancer), PC3 (human prostate cancer); intact cells
Procedure: as §1

[3] = target: T3, BN/GRP receptor-positive PC3 human prostate cancer cells (Homo sapiens, UniProt P30550); assay: Saturation binding assay on PC3 cells; conditions: n = 3-5 experiments, SD < 15%
T3 construct: BN/GRP receptor-positive MDA-MB-231, MCF7, T47D human breast cancer, and PC3 human prostate cancer lines; host or cells: MDA-MB-231, MCF7, T47D (human breast cancer), PC3 (human prostate cancer); intact cells
Procedure: as §1

[4] = target: T4, BN/GRP receptor-positive T47D human breast cancer cells (Homo sapiens, UniProt P30550); assay: Saturation binding assay on T47D cells; conditions: n = 3-5 experiments, SD < 15%
T4 construct: BN/GRP receptor-positive MDA-MB-231, MCF7, T47D human breast cancer, and PC3 human prostate cancer lines; host or cells: MDA-MB-231, MCF7, T47D (human breast cancer), PC3 (human prostate cancer); intact cells
Procedure: as §1

MDA-MB-231 tumors = assay: in vivo; type: in vivo, nude mice; conditions: for Radioactivity in Urine + bladder / Uptake in Blood / Uptake in Intestines (measured without their contents) / Uptake in Kidneys / Uptake in Liver / Uptake in Lungs / Uptake in Muscle / Uptake in Pancreas / Uptake in Spleen / Uptake in Stomach: female, nude, mouse, in vivo; for Uptake in Tumor: nude mice with MDA-MB-231 tumors, mean ± SD, n = 3-5
Procedure: BN/GRP receptor-positive MDA-MB-231 and PC3 cell lines (American Type Culture Collection, Rockville, USA) were grown as monolayers at 37 °C in a humidified atmosphere containing RPMI-1640 culture media with 10% fetal bovine serum (FBS) in tissue culture flasks. Twenty-four hours prior to conducting the tumor implantation, the media was replaced with RPMI-1640/10% FBS. The cells were grown to 80-90% confluency and harvested by trypsinization. After centrifugation, about 50 million cells were suspended in 1 mL media for implantation into mice. To prepare cells for inoculation, MDA-MB-231 or PC3 cancer cells with media were centrifuged, the media decanted, and the cell pellet was mixed with phosphate-buffered saline (PBS) to reach a concentration of approximately 5 million cells per 100 μL PBS. Human MDA-MB-231 breast cancer xenografts female mouse models were used for in vivo tumor-targeting experiments. For the implantation of tumor xenografts, approximately five million MDA-MB-231 cells in suspension of 100 μL sterile PBS were injected subcutaneously into the left thigh of each mouse. Tumors were allowed to grow for 4-6 weeks by which tumors had reached weights of 200-300 mg. After sufficient growth of tumors, animals were injected with 20-30 μCi of the radiotracers and the animals were sacrificed at specified time points. The uptake of ^68Ga-radiolabeled peptides in the tumors and other major body organs was calculated by γ-counting as described above.

Q: Which “Bmax (apparent number of binding sites per cell)” value [1] does the source give for `CCCC[C@H](NC(=O)[C@H](Cc1c[nH]cn1)NC(=O)[C@H](CC1CCCCC1)NC(=O)[C@@H](NC(=O)[C@H](C)NC(=O)[C@H](Cc1c[nH]c2ccccc12)NC(=O)[C@H](CCC(N)=O)NC(=O)[C@H](CS)NC(=O)CNC(=O)CNC(=O)c1ccc(NC(=O)CN2CCN(CC(=O)O)CCN(CC(=O)O)CCN(CC(=O)O)CC2)cc1)C(C)C)C(=O)N[C@@H](CCSC)C(N)=O` [^68Ga-DOTA-Abz-BN Tris-, metal not drawn] ({DOTA-4Abz}-GGCQWAV[Cha]H[Nle]M-NH2) here?
A: 4.86 × 10^5 sites/cell

Q: And the “%ID excreted in Feces” value (in vivo; 1 h)?
A: 0.90 ± 0.10 %ID

Q: What about the “%ID excreted in Urine” value (in vivo; 1 h) of the same compound?
A: 43.0 ± 8.70 %ID

Q: What about the “Uptake in Blood” value (in vivo; 1 h) of the same compound?
A: 0.66 ± 0.13 %ID/g

Q: What about the “Uptake in Bone” value (in vivo; 1 h) of the same compound?
A: 0.22 ± 0.05 %ID/g

Q: What about the “Uptake in Intestines (measured without their contents)” value (in vivo; 1 h) of the same compound?
A: 0.79 ± 0.16 %ID/g

Q: And the “Uptake in Kidneys” value (in vivo; 1 h)?
A: 4.0 ± 0.82 %ID/g

Q: And the “Uptake in Liver” value (in vivo; 1 h)?
A: 1.59 ± 0.23 %ID/g

Q: And the “Uptake in Lungs” value (in vivo; 1 h)?
A: 0.58 ± 0.10 %ID/g

Q: And the “Uptake in Pancreas” value (in vivo; 1 h)?
A: 1.48 ± 0.12 %ID/g

Q: What about the “Uptake in Spleen” value (in vivo; 1 h) of the same compound?
A: 0.11 ± 0.01 %ID/g

Q: What about the “Uptake in Stomach” value (in vivo; 1 h) of the same compound?
A: 1.82 ± 0.36 %ID/g

Q: And the “%ID excreted in Feces” value (in vivo; 2 h)?
A: 0.59 ± 0.08 %ID

Q: And the “%ID excreted in Urine” value (in vivo; 2 h)?
A: 50.0 ± 3.45 %ID

Q: And the “Uptake in Blood” value (in vivo; 2 h)?
A: 0.31 ± 0.05 %ID/g

Q: What about the “Uptake in Bone” value (in vivo; 2 h) of the same compound?
A: 0.12 ± 0.01 %ID/g

Q: And the “Uptake in Intestines (measured without their contents)” value (in vivo; 2 h)?
A: 0.61 ± 0.09 %ID/g

Q: And the “Uptake in Kidneys” value (in vivo; 2 h)?
A: 2.86 ± 0.37 %ID/g

Q: What about the “Uptake in Liver” value (in vivo; 2 h) of the same compound?
A: 0.91 ± 0.15 %ID/g

Q: What about the “Uptake in Lungs” value (in vivo; 2 h) of the same compound?
A: 0.40 ± 0.08 %ID/g

Q: What about the “Uptake in Pancreas” value (in vivo; 2 h) of the same compound?
A: 0.97 ± 0.05 %ID/g

Q: What about the “Uptake in Spleen” value (in vivo; 2 h) of the same compound?
A: 0.10 ± 0.01 %ID/g

Q: And the “Uptake in Stomach” value (in vivo; 2 h)?
A: 0.52 ± 0.12 %ID/g

Q: And the “Bmax (apparent number of binding sites per cell)” value [2]?
A: 5.89 × 10^5 sites/cell

Q: What about the “Bmax (apparent number of binding sites per cell)” value [3] of the same compound?
A: 5.90 × 10^5 sites/cell

Q: What about the “Bmax (apparent number of binding sites per cell)” value [4] of the same compound?
A: 1.0 × 10^5 sites/cell

Q: And the “Radioactivity in Urine + bladder” value (MDA-MB-231 tumors; 1 h)?
A: 58.0 ± 6.25 % injected dose per tissue

Q: And the “Uptake in Blood” value (MDA-MB-231 tumors; 1 h)?
A: 0.93 ± 0.22 % ID/g

Q: And the “Uptake in Intestines (measured without their contents)” value (MDA-MB-231 tumors; 1 h)?
A: 1.01 ± 0.17 % ID/g

Q: What about the “Uptake in Kidneys” value (MDA-MB-231 tumors; 1 h) of the same compound?
A: 6.52 ± 0.60 % ID/g

Q: And the “Uptake in Liver” value (MDA-MB-231 tumors; 1 h)?
A: 2.28 ± 0.31 % ID/g

Q: And the “Uptake in Lungs” value (MDA-MB-231 tumors; 1 h)?
A: 1.82 ± 0.30 % ID/g

Q: What about the “Uptake in Muscle” value (MDA-MB-231 tumors; 1 h) of the same compound?
A: 0.36 ± 0.07 % ID/g

Q: What about the “Uptake in Pancreas” value (MDA-MB-231 tumors; 1 h) of the same compound?
A: 1.81 ± 0.22 % ID/g

Q: And the “Uptake in Spleen” value (MDA-MB-231 tumors; 1 h)?
A: 0.18 ± 0.03 % ID/g

Q: What about the “Uptake in Stomach” value (MDA-MB-231 tumors; 1 h) of the same compound?
A: 1.0 ± 0.20 % ID/g

Q: What about the “Radioactivity in Urine + bladder” value (MDA-MB-231 tumors; 2 h) of the same compound?
A: 65.0 ± 9.13 % injected dose per tissue

Q: What about the “Uptake in Blood” value (MDA-MB-231 tumors; 2 h) of the same compound?
A: 0.64 ± 0.16 % ID/g

Q: What about the “Uptake in Intestines (measured without their contents)” value (MDA-MB-231 tumors; 2 h) of the same compound?
A: 0.76 ± 0.12 % ID/g

Q: What about the “Uptake in Kidneys” value (MDA-MB-231 tumors; 2 h) of the same compound?
A: 3.96 ± 0.48 % ID/g

Q: And the “Uptake in Liver” value (MDA-MB-231 tumors; 2 h)?
A: 1.71 ± 0.20 % ID/g

Q: And the “Uptake in Lungs” value (MDA-MB-231 tumors; 2 h)?
A: 1.26 ± 0.25 % ID/g

Q: And the “Uptake in Muscle” value (MDA-MB-231 tumors; 2 h)?
A: 0.28 ± 0.04 % ID/g

Q: What about the “Uptake in Pancreas” value (MDA-MB-231 tumors; 2 h) of the same compound?
A: 0.93 ± 0.15 % ID/g

Q: What about the “Uptake in Spleen” value (MDA-MB-231 tumors; 2 h) of the same compound?
A: 0.09 ± 0.02 % ID/g

Q: What about the “Uptake in Stomach” value (MDA-MB-231 tumors; 2 h) of the same compound?
A: 0.52 ± 0.13 % ID/g

Q: And the “Uptake in Tumor” value (MDA-MB-231 tumors; 1 h p.i.)?
A: 2.15 ± 0.33 % ID/g

Q: And the “Uptake in Tumor” value (MDA-MB-231 tumors; 2 h p.i.)?
A: 1.37 ± 0.25 % ID/g
